Patent US20230211007A1 (published 2023)

T1: CD20 (UniProt P11836 142-188, limits assumed)
T1 construct: Bought reagent
T1 chain (looked up): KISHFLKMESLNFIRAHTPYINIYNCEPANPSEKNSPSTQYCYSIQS


Biological target: T1, CD20
Assay: BLI (Octet), antibody on Pro A probe, CD20 25-200 nM in solution
Description: Antibody samples were dissolved in PBS with a working concentration of 10 μg/mL; CD20 (Beijing SinoBiological Co., Ltd.) was dissolved in PBS and gradiently diluted to concentrations of 25 nM, 50 nM, 75 nM, 100 nM, 150 nM, 200 nM respectively. The working volume was 200 μL.
The data diagram was fitted by OCTET system and data-processing software, and the intermolecular interaction between the antibody and the CD20 was calculated by the software, and shown in KD value.

Row | Kd [nM] | Binder
1 | 5.35 | WT Rituximab (antibody, human IgG1, kappa, also called anti-CD20 wild-type antibody) heavy: not shown light: QIVLSQSPAILSASPGEKVTMTCRASSSVSYIHWFQQKPGSSPKPWIYATSNLASGVPVRFSGSGSGTSYSLTISRVEAEDAATYYCQQWTSNPPTFGGGTKLEIKRTVAAPSVFIFPPSDEQLKSGTASVVCLLNNFYPREAKVQWKVDNALQSGNSQESVTEQDSKDSTYSLSSTLTLSKADYEKHKVYACEVTHQGLSSPVTKSFNRGEC
2 | 8.97 | anti-CD20 antibody mutant 124C (antibody, human IgG1, kappa) heavy: not shown light: QIVLSQSPAILSASPGEKVTMTCRASSSVSYIHWFQQKPGSSPKPWIYATSNLASGVPVRFSGSGSGTSYSLTISRVEAEDAATYYCQQWTSNPPTFGGGTKLEIKRTVAAPSVFIFPPSDECLKSGTASVVCLLNNFYPREAKVQWKVDNALQSGNSQESVTEQDSKDSTYSLSSTLTLSKADYEKHKVYACEVTHQGLSSPVTKSFNRGEC
3 | 4.86 | anti-CD20 antibody mutant 166C (antibody, human IgG1, kappa) heavy: not shown light: QIVLSQSPAILSASPGEKVTMTCRASSSVSYIHWFQQKPGSSPKPWIYATSNLASGVPVRFSGSGSGTSYSLTISRVEAEDAATYYCQQWTSNPPTFGGGTKLEIKRTVAAPSVFIFPPSDEQLKSGTASVVCLLNNFYPREAKVQWKVDNALQSGNSQESVTECDSKDSTYSLSSTLTLSKADYEKHKVYACEVTHQGLSSPVTKSFNRGEC
